Test system: Glyphosate-sensitive Palmer amaranth (A. palmeri R-22) plants
Test: Palmer amaranth pre-treated with PDS trigger oligonucleotides, then norflurazon
Format: in vivo, Amaranthus palmeri
Conditions: mixture of oligonucleotides incl. SEQ ID NO: 2137 at 0.8 nmol, 0.5% Silwet L-77; norflurazon 675 g ai/ha 24 and 48 h later; compared with norflurazon alone
Experimental: Glyphosate-sensitive Palmer amaranth (A. palmeri R-22) plants were grown in the greenhouse (30/20 C day/night T; 14 hour photoperiod) in 4 inch square pots containing Sun Gro® Redi-Earth and 3.5 kg/cubic meter Osmocote® 14-14-14 fertilizer. Palmer amaranth plants at 5 to 10 cm in height were pre-treated with a mixture of oligonucleotides one of which was a SEQ ID NO: 2137 at 0.8 nmol comprising at least one oligonucleotide targeting PDS coding or noncoding regions, formulated in 10 millimolar sodium phosphate buffer (pH 6.8) containing 2% ammonium sulfate and 0.5% Silwet L-77. Plants were treated manually by pipetting 10 μL of polynucleotide solution on four fully expanded mature leaves, for a total of 40 microliters of solution per plant. Twenty-four and forty-eight hours later, the plants were treated with norflurazon (Solicam®, Syngenta, Greensboro, N.C.) at 675 g ai/ha, crop oil concentrate (COC) at 1% is added to the herbicide treatments. Four replications of each treatment was conducted. Plant height is determined just before ssDNA treatment and at intervals upto twelve days after herbicide treatments to determine effect of the oligonucleotide and herbicide treatments.

B1: SEQ ID NO: 2137: ssDNA trigger oligonucleotide targeting PDS, one of a mixture applied to Palmer amaranth before norflurazon (nucleic acid, listed as Amaranthus palmeri)
antisense: ACCGAUUCCUGCAGGAGAAACAUGGUUCUAAGAUGGCCUUCCUAGACGGAAACCCUCCAGAGAGGCUGUGCAUGCCUAUUGUUAAACACAUCGAGUCACUAGGUGGUGAAGUUAAACUUAACUCUCGUAUACAAAAGAUUCAGUUGGACCAGAGUGGAAGCGUGAAGAGUUUUUUGCUAAAUAACGGGAGG
  injury to the plants (FIG. 1): more injury to the plants than the norflurazon alone
